In the supplement of paper PMC10567573:
± gives the standard deviation.

Experiment: protein stability index of a GFP-peptide fusion (GPS, HEK-293T) (PSI 1-6); higher = more stable
[1] = treatment: DMSO, c terminus: a fixed tail appended
[2] = treatment: MLN4924 1 uM, 8 h, c terminus: a fixed tail appended
[3] = treatment: DMSO, c terminus: native
[4] = treatment: MLN4924 1 uM, 8 h, c terminus: native
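Further: 24-mer peptide tiles fused after GFP, lentivirally expressed, FACS-sorted into six equal bins by GFP/DsRed ratio, decoded by Illumina sequencing, PSI is the read-weighted mean bin number.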

Sequence | protein stability index [1] | protein stability index [2] | protein stability index [3] | protein stability index [4]
VHRQLGEANEEFALRVQQLVAKEL [AUP1] | 3.79 ± 0.076 | 3.88 ± 0.1 | – | –
VIAKPSELTSVTAWMLCKLLDKAG [ALDH8A1] | 2.3 ± 0.2 | 2.3 ± 0.23 | – | –
VKRKKNVLRLCCKKLKIFAMPMQD [PRAME] | 2.29 ± 0.37 | 2.2 ± 0.15 | – | –
VLDLQRIFALYSSLKFKSRVPQTW [PLD5] | 3.19 ± 0.94 | 2.09 ± 0.26 | – | –
VLKTSRSTPLSPAYISLVEEEDQH [KLHL13] | 4.77 ± 0.13 | 4.91 ± 0.17 | – | –
VLKVLSVCSSNKPAIVEAGGMQAL [CTNNB1] | 2.46 ± 0.24 | 2.46 ± 0.098 | – | –
VLMVGPNFRVGKKIGCGNFGELRL [CSNK1G1] | 2.42 ± 0.053 | 2.69 ± 0.61 | – | –
VLRCQLGDRLNVEVDAAPPVDLNK [KRT36] | 4.06 ± 0.11 | 4.14 ± 0.25 | – | –
VLSEGSPLTEQEESSPSHDRSRTV [SRPK2] | 5.35 ± 0.33 | 5.32 ± 0.25 | – | –
VMEIQKQIEKKEKKLHKIQNKAQR [TAF7L] | 4.13 ± 0.088 | 4.36 ± 0.21 | – | –
VNARQKQGIYEEYEDIRRENPVGT [PTPN9] | 4.83 ± 0.37 | 4.96 ± 0.29 | – | –
VNPQDGTNTLTRIAENGVSERDSE [EHMT1] | 5.56 ± 0.22 | 5.51 ± 0.11 | – | –
VNSTLKELRRLFLVQDLVDSLKFA [RTN1] | 2.44 ± 0.27 | 2.4 ± 0.23 | – | –
VPIKPPCIPNGKENFSGGTSLWQN [CAMK2D] | 2.65 ± 0.12 | 2.71 ± 0.57 | – | –
VPQLVTGRCATRAFHRKSHSLDLN [RNF180] | 2.35 ± 0.2 | 2.6 ± 0.41 | – | –
VQLRFCGRQPCGRFLRAYREGALR [TRADD] | 2.61 ± 0.53 | 2.29 ± 0.65 | – | –
VQRHLYLQDVIMQVADVPEKPRVP [ZNF511] | 2.8 ± 0.2 | 2.9 ± 0.29 | – | –
VQVLTMGNDTSPSEGTNLNAPNSL [HNF4A] | 3.97 ± 0.17 | 4.02 ± 0.18 | – | –
VRAKGSQSGRHLQTHSNTIVVSLQ [STX5] | 2.48 ± 0.24 | 2.64 ± 0.075 | – | –
VRSRLEEAGIKVHDVRLNGSAAGH [TENT5C] | 2.85 ± 0.43 | 3.21 ± 0.64 | – | –
VSGLLVGYELGIISGALLQIKTLL [SLC2A12] | – | 2.97 ± 1.2 | – | –
VSHVFMLLFNVKSPTDIQDSSIIR [RHOBTB3] | 2.81 ± 0.56 | 2.64 ± 0.48 | – | –
VSIMYLVLVLAVQVHAWQLYYSKK [JAGN1] | 2.98 ± 0.67 | 3.27 ± 0.16 | – | –

Sequence | protein stability index [1] | protein stability index [2] | protein stability index [3] | protein stability index [4]
VSTWFANARRRLKKENKMTWAPKN [IRX6] | 2.57 ± 0.22 | 2.75 ± 0.13 | – | –
VTDYFFTLVQREEPLRILSKYHRF [CDS2] | 2.45 ± 0.21 | 2.42 ± 0.28 | – | –
VTLAAHFLGLGAPNCLSMGSRCLK [ZBED1] | 2.26 ± 0.37 | 2.19 ± 0.21 | – | –
VTSFDSVVPEKLDDLVPKGKKFLL [ALG2] | 3.32 ± 0.25 | 3.31 ± 0.16 | – | –
VVEKRLCMYEHGEDTHQSPEPEDE [RSPH3] | 5.43 ± 0.43 | 5.58 ± 0.23 | – | –
VVETVFFLTSRTRALLRRFPRMLL [ZSWIM9] | 2.89 ± 0.095 | 2.87 ± 0.3 | – | –
WAVVTMTTVGYGDMKPITVGGKIV [KCNA4] | 2.84 ± 0.38 | 2.72 ± 0.55 | – | –
WDKHACPAYVGPEILSSRASYSGK [TRIB3] | 3.53 ± 0.096 | 3.5 ± 0.24 | – | –
WERVHLIVAGGYDERVLENVEHYQ [ALG2] | 2.33 ± 0.19 | 2.48 ± 0.3 | – | –
WESRTGDQYSYSSLVMGSQTESAL [LCOR] | 3.44 ± 0.27 | 3.51 ± 0.46 | – | –
WQSESLPVSLSASQSWHTESLPVS [BCL2L13] | 3.26 ± 0.23 | 3.35 ± 0.14 | – | –
WRITNAKGDVEEVQGPGVVGEFPI [FBXO3] | 3.75 ± 0.34 | 3.84 ± 0.48 | – | –
WTLYKILDSCKQLTLAQGAGEEDP [SMG5] | 2.32 ± 0.18 | 2.56 ± 0.28 | – | –
YCSIKCQQEHWHAEHKRTCRRKR [ZMYND11] | – | – | 2.92 ± 0.61 | 3.51 ± 0.87
YDGMLSDVQSMPKTGILILILSII [MAGEA10] | 2.36 ± 0.78 | 2.12 ± 0.48 | – | –
YDGRSRLSSVECLDYTADEDGVWY [KLHL12] | 3.55 ± 0.4 | 3.76 ± 0.35 | – | –
YEDTNGQPQALLVDGDQSKILISG [TNXB] | 4.99 ± 0.13 | 4.73 ± 0.12 | – | –
YEKKFDTFIPLEPLPQIPNLPFWV [SPATS1] | 2.24 ± 0.31 | 1.95 ± 0.18 | – | –
YFSTPQTMDLFLNYSMNMQPEDV [NANOGP8] | – | – | 2.34 ± 0.21 | 2.27 ± 0.55
YFYPRGGGSGGGAGGAGGGVTEEQ [JUNB] | 5.01 ± 0.3 | 4.89 ± 0.41 | – | –
YHNSPAYLAYINAKSRAEAALEEE [SMARCE1] | 2.53 ± 0.54 | 4.01 ± 0.38 | – | –
YISLLLRAEPYPTSRFGSQCMQPN [NR2F2] | 2.55 ± 0.5 | 2.43 ± 0.39 | – | –
YKIVTAREWRCCPGHSGVSCEEVA [EMID1] | 2.49 ± 0.32 | 2.39 ± 0.41 | – | –

Sequence | protein stability index [1] | protein stability index [2] | protein stability index [3] | protein stability index [4]
YLPPERIREKSRLFDTKHDVYSFA [RIPK4] | 2.62 ± 0.24 | 2.72 ± 0.25 | – | –
YLYTYDSQITDSEHNSSLVSQQTG [ZNF8] | 3.73 ± 0.2 | 3.71 ± 0.11 | – | –
YLYYDPDYSFLSLGVYSALREIAF [ATE1] | 2.92 ± 0.2 | 2.67 ± 0.24 | – | –
YMGKGSMTGLALKHMFERSFTQGE [MATN2] | 2.37 ± 0.23 | 3.07 ± 0.18 | – | –
YNQQQALIDQRYFQVLCSINSIIH [CEP70] | 2.32 ± 0.34 | 2.24 ± 0.23 | – | –
YPPQMGEEYSQIIYSTKLYRFFKY [BTBD10] | 2.88 ± 0.71 | 2.73 ± 0.83 | – | –
YPSYKVREKIETVKYPTYPEAEK [FUT8] | – | – | 4.07 ± 0.19 | 4.16 ± 0.57
YRFRMKCHLCVNYIEMQTDPANCD [YJU2B] | 2.3 ± 0.31 | 2.26 ± 0.17 | – | –
YRWHINFTTFFIDCMAALGLAYDR [SCD] | 2.99 ± 0.65 | 2.61 ± 0.64 | – | –
YSAIDRVKSRGKRLALEKVPKVGQ [PI4K2A] | 4.04 ± 0.33 | 4.12 ± 0.27 | – | –
YSDRTNIISKPVPQTLIMAYDYAK [FEM1C] | 2.36 ± 0.24 | 2.49 ± 0.41 | – | –
YSENAPFHLSLFQGWMNLLNMAKK [PLD5] | 2.08 ± 0.61 | 2.23 ± 0.13 | – | –
YSFGSGGGYGSSFGGVDGLLAGGE [KRT17] | 2.84 ± 0.13 | 2.9 ± 0.098 | – | –
YSKTWTKQPDLTMVRKIGCYAAMK [GAN] | 2.92 ± 0.96 | 2.42 ± 0.19 | – | –
YSPAVMNYSIPSNVTNLEGGPGRQ [ESR2] | 3.8 ± 0.4 | 3.75 ± 0.4 | – | –
YSYVVSRPQPRGLLGWGYYLIMLP [FAF2] | 2.89 ± 0.57 | 2.16 ± 0.37 | – | –
YTRLGEMNNAVRNLQELLELDSSS [CEP70] | 3.77 ± 0.22 | 4.06 ± 0.17 | – | –
YTSPDKLKDIFMFITRQLKGLEDT [PDS5B] | 3.62 ± 0.19 | 3.84 ± 0.3 | – | –
YVSLGRLGAAKGALHPGCFAPLHP [CEBPB] | 3.44 ± 0.94 | 2.73 ± 0.17 | – | –
YYPRVQHYRELLDSLPMDAYTHGC [GDAP1] | 2.21 ± 0.17 | 2.32 ± 0.23 | – | –
YYRGFTLFQTHENREHLVMMEKIL [CLK3] | 2.31 ± 0.31 | 2.34 ± 0.37 | – | –
